The experiment addresses catalase (PktA) from Psychrobacter piscatorii T-3 (Psychrobacter piscatorii T-3). Briefly: SEC; gel filtration on two Protein PAK 300 columns, 0.1 M potassium phosphate buffer (pH 7.0), against mass standards; native mass compared with the subunit mass by SDS-PAGE. A general note: In gel filtration, larger molecules generally elute earlier.

Turning to “catalase (PktA) from Psychrobacter piscatorii T-3 (enzyme)”, the stoichiometry N was 4.

As a reminder, the stoichiometry N is the number of molecules, sites or subunits per partner or assembly.
